Reference: patent publication US20090004198A1 (published 2009)

Biological target: T1, GST-HCMV-AD1 fusion protein (human cytomegalovirus (HCMV), UniProt P06473 552-635)
T1 construct: also called GST fused HCMV-AD1; not shown: GST (glutathione S-transferase) fusion partner
Assay: BIAcore (SPR); antigen fixed to the sensor chip, antibody as analyte; GST protein as control

T1 sequence (P06473 552-635 limits assumed): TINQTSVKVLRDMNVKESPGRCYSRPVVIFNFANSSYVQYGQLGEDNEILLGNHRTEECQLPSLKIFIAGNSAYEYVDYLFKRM

B1: anti-HCMV antibody (G3D No. 9) (antibody, human IgG1, kappa, V domains shown)
VH: QVQLVESGGGMVQPGKSLRLSCAASGFTFSSYGMHWVRQAPGRGLEWVAIIWYDGDNTWYADSVKGRITISRDNSKNMLYLQMDSLRVEDTALYYCVRGGLGYFNGWDVDHWGQGTLVTVSS
VL: DVVMTQSPLSLPVTLGQPASISCRSSESLVYSDGNTYLNWFQQRPGQSPRRLISKVSNRDSGVPDRFSGSGSGTDFTLKISRVEAEDVGVYYCMQGSHWPPYTFGQGTKLEIKR
notes: also called G3D No. 9 antibody; anti-HCMV monoclonal antibody
Kd: 0.0116 nM
